Results published in paper PMC10625714 (Nature chemical biology, 2023).

Target: the molecule itself
Assay: cryo-EM structure

B1: nuclease-deficient AsCas12f (AsCas12f-D225A) (enzyme, Acidibacillus sulfuroxidans)
chain: MIKVYRYEIVKPLDLDWKEFGTILRQLQQETRFALNKATQLAWEWMGFSSDYKDNHGEYPKSKDILGYTNVHGYAYHTIKTKAYRLNSGNLSQTIKRATDRFKAYQKEILRGDMSIPSYKRDIPLDLIKENISVNRMNHGDYIASLSLLSNPAKQEMNVKRKISVIIIVRGAGKTIMDRILSGEYQVSASQIIHDDRKNKWYLNISYDFEPQTRVLDLNKIMGIALGVAVAVYMAFQHTPARYKLEGGEIENFRRQVESRRISMLRQGKYAGGARGGHGRDKRIKPIEQLRDKIANFRDTTNHRYSRYIVDMAIKEGCGTIQMEDLTNIRDIGSRFLQNWTYYDLQQKIIYKAEEAGIKVIKIDPQYTSQRCSECGNIDSGNRIGQAIFKCRACGYEANADYNAARNIAIPNIDKIIAESIK
- stoichiometry N: 2
